Test [1] addresses human CD44v9 (CD44 variant containing exon v9), as expressed on PC9 cells and in human tissues (human) (UniProt P16070). Description: cell-based or functional assay.
For test [2] the target is unchanged. As to the kind of experiment: FACS titration on PC9 cells (30000 pM to 0.1 pM, 3 fold serial dilution), Alexa488 anti-mouse IgG, MFI.
Test [3] addresses human CD44v6 (CD44 variant containing exon v6), as expressed on PC9 cells and in human tissues (human), P16070. As to the kind of experiment: cell-based or functional assay.

As a reminder, the Kd is the concentration at which binding is half-saturated. Read a high Kd as lower affinity.

UniProt P16070, sequence (P16070 21-742, change not shown): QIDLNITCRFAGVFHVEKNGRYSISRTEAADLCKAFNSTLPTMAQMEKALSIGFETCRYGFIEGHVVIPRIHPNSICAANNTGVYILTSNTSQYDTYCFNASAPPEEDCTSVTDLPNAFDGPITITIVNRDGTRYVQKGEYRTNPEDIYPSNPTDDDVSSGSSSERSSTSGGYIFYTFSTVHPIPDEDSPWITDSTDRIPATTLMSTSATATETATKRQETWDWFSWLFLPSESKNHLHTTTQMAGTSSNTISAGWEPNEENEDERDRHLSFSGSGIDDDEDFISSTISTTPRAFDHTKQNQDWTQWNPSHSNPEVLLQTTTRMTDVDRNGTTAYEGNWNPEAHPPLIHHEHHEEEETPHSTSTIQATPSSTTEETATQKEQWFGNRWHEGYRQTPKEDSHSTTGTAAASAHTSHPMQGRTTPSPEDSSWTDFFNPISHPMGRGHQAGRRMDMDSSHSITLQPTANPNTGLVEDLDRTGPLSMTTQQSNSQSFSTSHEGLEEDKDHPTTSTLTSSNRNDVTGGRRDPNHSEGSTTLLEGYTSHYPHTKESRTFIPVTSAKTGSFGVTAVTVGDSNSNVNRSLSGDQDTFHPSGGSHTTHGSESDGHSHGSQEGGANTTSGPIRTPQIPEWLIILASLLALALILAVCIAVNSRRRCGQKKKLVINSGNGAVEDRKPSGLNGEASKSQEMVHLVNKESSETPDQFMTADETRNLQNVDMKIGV

B1: anti-CD44v9 monoclonal antibody mAb116 (antibody, V domains shown)
VH: QVQLQQSGAELVKPGASVKLSCTASGFNIKDTYMHWVKQRPEQGLEWIGRIDPANGNTKYDPKFQGKATITADTSSNTAYLQLSSLTSEDTAVYYCASRGEGTGFAYWGLGTLVTVSA
VL: DIVMTQSAPSVPVTPGESVSISCRSSKSLLHSNGNTYLYWFLQRPGQSPQLLIHRMSNLASGVPDRFSGSGSGTAFTLRISRVEAEDVGVYYCMQHLEYPFTFGGGTKLEIK
Consider B1, for which, in test [1], the IC50 of PC9 growth inhibition (indirect cytotoxicity, mAb116 with 2 µg/mL MMAE-conjugated goat anti mouse IgG, 72 hrs, CCK8) was found to be 0.03 nM. This molecule also showed a Kd in test [2] of 0.98 nM.

B2: mAb119-ADC (AMT119), mAb119 conjugated with MC-vc-PAB-MMAE (protein)
VH: EVQLQESGPELKKPGETVKISCKASGYIFTNYGMNWVKQAPGKGLKWMGWINTYTGEPTYADDFKGRFAFSLETSASTAYLQINNLKNEDTATYFCARTDYYGSSYWYFDVWGAGTTVTVSS
VL: DIQMTQTTSSLSASLGDRVTITCSASQGISNYLNWYQQKPDGTVKLLIFYTSTLPSGVPSRFSGSGSGTDYSLTIRNLEPEDFATYCCQQYSKFPYTFGGGTKLEIK
modifications: here or on the partner: MC-vc-PAB-MMAE conjugated to the antibody (average DAR about 6); attachment residues and chain not stated
In test [3], B2 registered an IC50 of cytotoxicity (growth inhibition) in PC9 cells of 2.6 nM and an IC50 of cytotoxicity (growth inhibition) in TE1 cells of 39 nM.

Source of the values: patent US20210087289A1.
